For 3 molecules, Kd results are on record in publication PMC4027183.

By Kd is commonly meant the constant that tells how readily two partners part at equilibrium. A lower Kd goes with higher affinity.

Common to all, as to experiment: ITC
(ITC needs no label: the signal is the heat of the interaction.)

For data set [1], the target named is T1, TIA-1 RRM2,3 (Homo sapiens, UniProt P31483-2 93-274).
T1 sequence: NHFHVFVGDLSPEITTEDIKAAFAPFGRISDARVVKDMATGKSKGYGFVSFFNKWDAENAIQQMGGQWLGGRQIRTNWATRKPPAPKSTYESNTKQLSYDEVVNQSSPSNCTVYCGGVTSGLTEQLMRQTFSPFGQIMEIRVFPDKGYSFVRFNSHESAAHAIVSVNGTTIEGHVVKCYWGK

In a further data set the target is T2, TIA-1 RRM1,2,3 (Homo sapiens, UniProt P31483-2 1-274).
T2 sequence: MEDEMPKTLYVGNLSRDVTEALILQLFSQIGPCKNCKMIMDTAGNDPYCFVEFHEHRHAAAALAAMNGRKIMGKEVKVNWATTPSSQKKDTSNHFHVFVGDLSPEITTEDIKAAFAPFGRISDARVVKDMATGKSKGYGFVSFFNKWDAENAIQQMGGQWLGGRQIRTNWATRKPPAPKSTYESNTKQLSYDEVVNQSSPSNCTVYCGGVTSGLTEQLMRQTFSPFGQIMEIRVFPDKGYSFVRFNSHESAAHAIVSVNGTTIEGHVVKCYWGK

The target of data set [2] is T1, TIA-1 RRM2,3. This is another data set of the same source.
In data set [3] the target is T1, TIA-1 RRM2,3. This is another data set of the same source.

Read-outs that look alike come from different tables or passages of the source.

In turn, UUCUCCUUUC (ssRNA) [fas_10] yielded a dissociation constant (Kd) with TIA-1 RRM2,3 [1] of 35.6 ± 8.1 nM.

Turning to UUUUUUUUUUUUUUU (ssRNA) [U15], in the data set with TIA-1 RRM1,2,3, the Kd amounted to 16.9 ± 2.7 nM.

Take UUUUUUUUU (ssRNA) [U9]: the values for the dissociation constant (Kd) with TIA-1 RRM2,3 [2] and with TIA-1 RRM2,3 [3] were 5.6 ± 1.9 nM and 7 ± 0.2 nM, respectively.
